In patent US20180142032A1 (Sanofi, published 2018):
Read-outs that look alike come from different tables or passages of the source.

T1: human LAMP1 at the cell surface (human, UniProt P11279 29-417)
T1 construct: native on tumour cells (PDX, Colo205, SW480, LS174T) or from the cloned CDS NM_005561.3 in HEK293 and HCT116; signal peptide 1-28 left out; also called huLAMP1; full length human LAMP1
T1 sequence: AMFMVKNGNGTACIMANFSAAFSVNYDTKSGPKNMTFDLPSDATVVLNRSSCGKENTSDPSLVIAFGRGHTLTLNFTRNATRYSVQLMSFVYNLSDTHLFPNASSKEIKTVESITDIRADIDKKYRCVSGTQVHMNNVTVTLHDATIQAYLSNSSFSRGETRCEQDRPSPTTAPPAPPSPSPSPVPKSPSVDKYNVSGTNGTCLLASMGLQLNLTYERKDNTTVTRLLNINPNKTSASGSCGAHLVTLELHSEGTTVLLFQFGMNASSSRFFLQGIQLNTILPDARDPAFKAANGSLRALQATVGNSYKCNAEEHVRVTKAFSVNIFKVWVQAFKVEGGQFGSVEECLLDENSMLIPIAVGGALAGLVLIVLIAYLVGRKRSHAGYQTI

T2: cynomolgus monkey LAMP1 at the cell surface (cynomolgus monkey, UniProt P11279 29-417 (human entry))
T2 construct: also called cynoLAMP1; cynomolgus LAMP1
T2 chain: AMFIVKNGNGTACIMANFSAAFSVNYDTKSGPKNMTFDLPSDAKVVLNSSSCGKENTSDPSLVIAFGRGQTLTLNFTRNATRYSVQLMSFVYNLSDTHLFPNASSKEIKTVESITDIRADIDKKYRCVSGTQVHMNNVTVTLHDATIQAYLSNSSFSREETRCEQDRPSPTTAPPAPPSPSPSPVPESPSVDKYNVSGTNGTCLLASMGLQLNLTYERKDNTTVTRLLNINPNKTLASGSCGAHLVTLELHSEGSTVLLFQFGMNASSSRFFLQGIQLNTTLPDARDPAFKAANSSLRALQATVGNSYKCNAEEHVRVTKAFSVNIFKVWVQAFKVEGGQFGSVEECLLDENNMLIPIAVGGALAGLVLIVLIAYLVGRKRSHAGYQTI

T3: LAMP1::histag (human, UniProt P11279 29-382)
T3 construct: extracellular domain without signal peptide, C-terminal 6 His tag, made in HEK293 cells; also called recombinant human LAMP1; human LAMP1 (29-382)
T3 sequence: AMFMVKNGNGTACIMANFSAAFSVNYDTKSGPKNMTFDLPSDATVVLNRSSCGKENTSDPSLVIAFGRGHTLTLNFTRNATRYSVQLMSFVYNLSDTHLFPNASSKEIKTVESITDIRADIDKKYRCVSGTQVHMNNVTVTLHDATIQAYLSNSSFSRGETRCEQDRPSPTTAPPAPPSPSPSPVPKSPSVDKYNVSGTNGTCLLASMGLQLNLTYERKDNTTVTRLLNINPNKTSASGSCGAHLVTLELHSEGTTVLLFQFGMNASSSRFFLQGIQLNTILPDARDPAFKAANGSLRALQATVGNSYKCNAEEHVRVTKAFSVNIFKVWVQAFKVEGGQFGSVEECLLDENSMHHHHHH


Key:
[1] = target: T1, human LAMP1 at the cell surface; experiment: flow cytometry, HCT116 huLAMP1 clone 8
Description: HCT116 cells were infected by a lentiviral vector allowing stable integration of the human or the cynomolgus LAMP1 CDS in genomic DNA of cells. Individual clones with different densities of human or cynomolgus LAMP1 cell surface localization were derived from a pool of HCT116 infected cells. […] 100 μL/well of goat anti-human IgG conjugated with Alexa488 (Invitrogen; # A11013) was added for 1 h at 4° C. and washed two times with PBS 1% BSA. The antibody binding was evaluated after centrifugation and resuspension of cells in 100 μl fixing solution (paraformaldehyde at 4% in PBS). Samples were read using Galaxy® Flow Cytometry System (Partec). EC50 values were estimated using BIOST@T-SPEED software.

[2] = target: T2, cynomolgus monkey LAMP1 at the cell …; experiment: flow cytometry
[3] = target: T1, human LAMP1 at the cell surface; experiment: cell-based or functional assay
[4] = target: T2, cynomolgus monkey LAMP1 at the cell …; experiment: flow cytometry, HEK293 cynoLAMP1 clone 44
[5] = target: T2, cynomolgus monkey LAMP1 at the cell …; experiment: flow cytometry, HEK293 cynoLAMP1 clone 44
LAMP1::histag [6] = target: T3, LAMP1::histag; experiment: ELISA on secreted human LAMP1
[7] = target: T1, human LAMP1 at the cell surface; experiment: cell-based or functional assay; remark: listed apart in the source
LAMP1::histag [8] = target: T3, LAMP1::histag; experiment: SPR (BIAcore 2000), mAb captured by anti-Fc, LAMP1 injected 1 to 256 nM
Description: The binding kinetics of the murine, chimer or humanized anti-LAMP1 mAbs were determined by surface plasmon resonance assay using a BIAcore 2000 (BIAcore Inc., Uppsala, N.J.). […] A mouse anti-αhuman Fc IgG1 (BIAcore #BR-1008-39) and rabbit anti-αmurine Fc IgG1 (BIAcore #BR-1008-38) (50 μg/mL in […], pH5) were immobilized on the activated chips in all flow cells. The immobilization was carried out at a flow rate of 10 μL/min up to saturation. The chip was then blocked by injection of 70 μL of ethanolamine-HCl, pH 8.5, followed by one wash with 3 M MgCl₂ for anti-αhuman Fc IgG1 and one wash with 10 mM Glycine-HCl pH 1.7 for anti-αmurine Fc IgG1. To measure the binding of anti-LAMP1 mAbs to LAMP1, antibodies were used at 1-5 μg/mL in BIAcore running buffer (HBS-EP). […] Following completion of the injection phase, dissociation was monitored in a BIAcore running buffer at the same flow rate for 600 sec. […] Individual sensorgrams were analyzed using BIAevaluation software.

Binder	EC50 [1] [nM]	Ratio of EC50s (cynoLAMP1 against huLAMP1) [2]	EC50 [4] [nM]	cytotoxicity IC50, HCT116 huLAMP1 clone 8 [7] [nM]	other results
DM4-SPDB-chMAb1 (antibody, human IgG1, kappa, DM4 linked through SPDB, average DAR 4.5 per antibody; sites not stated, antibody drug conjugate of chMAb1; also called chMAb1-SPDB-DM4) heavy: not shown light: DIQMTQSPPSLSASLGGKVTITCKASQDIDRYMAWYQDKPGKGPRLLIHDTSTLQPGIPSRFSGSGSGRDYSFSISNLEPEDIATYYCLQYDNLWTFGGGTKLEIKRTVAAPSVFIFPPSDEQLKSGTASVVCLLNNFYPREAKVQWKVDNALQSGNSQESVTEQDSKDSTYSLSSTLTLSKADYEKHKVYACEVTHQGLSSPVTKSFNRGEC	6.6	1	6.6		Cytotoxic activity IC50 (Cell Titer-Glo), HCT116-LAMP1 clone 5, antigen density 451 000 [3]: 0.2 nM; Cytotoxic activity IC50 (Cell Titer-Glo), HCT116-LAMP1 clone 8, antigen density 160 000 [3]: 0.1 nM
huMAb1_2 (antibody, human IgG1, kappa, V domains shown, humanized, VH2-huIgG1 and VL2-huCk) VH: QVQLVQSGAELVKPGASVKMSCKASGYIFTNYNIHWVKKSPGQGLEWIGAIYPGNGDAPYSQKFQDRATLTADTSSSTTYMELSSLTSEDSAVYYCVRANWDVAFAYWGQGTLVSVSS VL: DIQMTQSPPSLSASVGGKVTITCKASQDIDRYMAWYQDKPGKGPKLLIHDTSTLQPGIPSRFSGSGSGRDYSFSISNLEPEDIATYYCLQYDNLWTFGGGTKLEIKR	6.6				EC50 [5]: 13.3 nM
huMAb1_negB (antibody, human IgG1, kappa, LC1 and HCnegB (VH1-huIgG1_266A, D265A by Kabat)) heavy: not shown light: DIQMTQSPSSLSASVGDRVTITCKASQDIDRYMAWYQDKPGKAPRLLIHDTSTLQSGVPSRFSGSGSGRDYTLTISNLEPEDFATYYCLQYDNLWTFGGGTKVEIKRTVAAPSVFIFPPSDEQLKSGTASVVCLLNNFYPREAKVQWKVDNALQSGNSQESVTEQDSKDSTYSLSSTLTLSKADYEKHKVYACEVTHQGLSSPVTKSFNRGEC					EC50 (LAMP1::histag [6]): 0.07 nM
DM4-SPDB-chMAb3 (antibody, human IgG1, kappa, V domains shown, DM4 linked through SPDB, average DAR 3.7 per antibody; sites not stated) VH: QIQLVQSGPELKKPGETVKISCKASGYIFTNYGMNWVKQAPGKGLKWMGWINTYTGESRYADDFKGRFALSLETSASTAYLQINNLENEDMATYFCAREDYYGNSPWFFDVWGAGTTVTVSS VL: DIQMTQTTSSLSASLGDRVTISCRASQGINKYLNWYQQKPDGTVKLLIYYTSTLHSGVPSRFSGSGSGTDYSLTINNLEPEDIATYYCQQYTRLPFTFGSGTKLEIKR	9.1	0.7	6.1	0.06	
chMAb3_VLR24-R93 (antibody, human IgG1, kappa, V domains shown, chimeric, human IgG1, Ckappa; VL with N24R and K93R) VH: QIQLVQSGPELKKPGETVKISCKASGYIFTNYGMNWVKQAPGKGLKWMGWINTYTGESRYADDFKGRFALSLETSASTAYLQINNLENEDMATYFCAREDYYGNSPWFFDVWGAGTTVTVSS VL: DIQMTQTTSSLSASLGDRVTISCRASQGINKYLNWYQQKPDGTVKLLIYYTSTLHSGVPSRFSGSGSGTDYSLTINNLEPEDIATYYCQQYTRLPFTFGSGTKLEIKR					Kd (LAMP1::histag [8]): 7.2 nM
chMAb2can (antibody, human IgG1, kappa, V domains shown) VH: QVQLQQSAAELARPGASVKMSCKASGYTFTSYTMHWVKQRPGQGLEWIGYFNPSSGYPEYNQKFKDKTTLTADKSSNTAFIQLNSLTSEDSAVYYCSRGYYYGSRGYALDFWGQGTSVTVSS VL: NIVLTQSPASLAVSLGQRATISCRASESVDINGNTFMHWYQQKPGQSPKLLIYAASNLESGVPARFSGSGSGTDFTFTIDPVEADDVATYYCQQNIEDPWTFGGGTKLEIKR					Kd (LAMP1::histag [8]): 68.8 nM
DM4-SPDB-chMAb2 (antibody, human IgG1, kappa, V domains shown, DM4 linked through SPDB, average DAR 3.7 per antibody; sites not stated, also called DM4-SPDB-chMAb2can) VH: QVQLQQSAAELARPGASVKMSCKASGYTFTSYTMHWVKQRPGQGLEWIGYFNPSSGYPEYNQKFKDKTTLTADKSSNTAFIQLNSLTSEDSAVYYCSRGYYYGSRGYALDFWGQGTSVTVSS VL: NIVLTQSPASLAVSLGQRATISCRASESVDINGNTFMHWYQQKPGQSPKLLIYAASNLESGVPARFSGSGSGTDFTFTIDPVEADDVATYYCQQNIEDPWTFGGGTKLEIKR	5.5	2.3	12.8	0.07	
DM4-SPDB-huMAb1_2 (antibody, human IgG1, kappa, V domains shown, DM4 linked through SPDB, average DAR 4.05 per antibody; sites not stated) VH: QVQLVQSGAELVKPGASVKMSCKASGYIFTNYNIHWVKKSPGQGLEWIGAIYPGNGDAPYSQKFQDRATLTADTSSSTTYMELSSLTSEDSAVYYCVRANWDVAFAYWGQGTLVSVSS VL: DIQMTQSPPSLSASVGGKVTITCKASQDIDRYMAWYQDKPGKGPKLLIHDTSTLQPGIPSRFSGSGSGRDYSFSISNLEPEDIATYYCLQYDNLWTFGGGTKLEIKR				0.07	
DM4-SPDB-huMAb1_3 (antibody, human IgG1, kappa, V domains shown, DM4 linked through SPDB, average DAR 3.5 per antibody; sites not stated) VH: QVQLVQSGAELVKPGASVKMSCKASGYIFTNYNIHWVRQAPGQGLEWIGAIYPGNGDAPYAQKFQGRATLTADTSSSTTYMELSSLTSEDTAVYYCVRANWDVAFAYWGQGTLVTVSS VL: DIQMTQSPSSLSASVGGKVTITCKASQDIDRYMAWYQQKPGKGPKLLIHDTSTLQPGVPSRFSGSGSGRDYSLTISSLEPEDIATYYCLQYDNLWTFGGGTKLEIKR				0.12	
huMAb1_3 (antibody, human IgG1, kappa, V domains shown, humanized, VH3-huIgG1 and VL3-huCk) VH: QVQLVQSGAELVKPGASVKMSCKASGYIFTNYNIHWVRQAPGQGLEWIGAIYPGNGDAPYAQKFQGRATLTADTSSSTTYMELSSLTSEDTAVYYCVRANWDVAFAYWGQGTLVTVSS VL: DIQMTQSPSSLSASVGGKVTITCKASQDIDRYMAWYQQKPGKGPKLLIHDTSTLQPGVPSRFSGSGSGRDYSLTISSLEPEDIATYYCLQYDNLWTFGGGTKLEIKR	10.3				EC50 [5]: 17.7 nM
